Assay results published in patent US20170335016A1 (Kyowa Kirin, published 2017).
Substitutions are numbered along the chain they refer to.

B1: DVD341VL34-341 (bispecific antibody, human IgG2, kappa)
heavy: EVQLVESGGGLVKPGGSLRLSCGGSGFTFNNAWMNWVRQAPGKGLEWVGRIKGKTDGGTADYAAPVKGRFTISRDYSKNTLYLQMNSLTTEDTAVYYCNTDLPYYYGSGRYSGMDVWGQGTTVTVSSASTKGPQVQLQQSGPGLVKPSQTLSLTCAISGDSVSSNSATWNWIRQSPSRDLEWLGRTYYRSKWYRDYVGSVKSRIIINPDTSNNQFSLQLNSVTPEDTAIYYCTRAQWLGGDYPYYYSMDVWGQGTTVTVSSASTKGPSVFPLAPCSRSTSESTAALGCLVKDYFPEPVTVSWNSGALTSGVHTFPAVLQSSGLYSLSSVVTVPSSNFGTQTYTCNVDHKPSNTKVDKTVERKCCVECPPCPAPPVAGPSVFLFPPKPKDTLMISRTPEVTCVVVDVSHEDPEVQFNWYVDGVEVHNAKTKPREEQFNSTFRVVSVLTVVHQDWLNGKEYKCKVSNKGLPASIEKTISKTKGQPREPQVYTLPPSREEMTKNQVSLTCLVKGFYPSDIAVEWESNGQPENNYKTTPPMLDSDGSFFLYSKLTVDKSRWQQGNVFSCSVMHEALHNHYTQKSLSLSPGK
light: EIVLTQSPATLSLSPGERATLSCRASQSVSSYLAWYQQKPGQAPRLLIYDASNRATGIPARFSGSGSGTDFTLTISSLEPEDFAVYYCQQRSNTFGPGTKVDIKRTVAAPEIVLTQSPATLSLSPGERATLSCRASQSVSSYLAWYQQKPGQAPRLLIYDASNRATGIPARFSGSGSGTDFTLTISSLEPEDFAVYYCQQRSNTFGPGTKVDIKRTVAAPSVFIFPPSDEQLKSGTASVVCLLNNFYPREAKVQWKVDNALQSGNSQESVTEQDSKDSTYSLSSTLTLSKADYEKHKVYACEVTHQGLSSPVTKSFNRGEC
notes: Comparison molecule with a short linker, after Wu et al. Entries probably still carry signal peptides; Tested as culture supernatant
B2: DVD341VL36-341 (bispecific antibody, human IgG2, kappa)
heavy: B1 heavy with T89K, A94G, N99T, D101Y, G109E, Y111W
light: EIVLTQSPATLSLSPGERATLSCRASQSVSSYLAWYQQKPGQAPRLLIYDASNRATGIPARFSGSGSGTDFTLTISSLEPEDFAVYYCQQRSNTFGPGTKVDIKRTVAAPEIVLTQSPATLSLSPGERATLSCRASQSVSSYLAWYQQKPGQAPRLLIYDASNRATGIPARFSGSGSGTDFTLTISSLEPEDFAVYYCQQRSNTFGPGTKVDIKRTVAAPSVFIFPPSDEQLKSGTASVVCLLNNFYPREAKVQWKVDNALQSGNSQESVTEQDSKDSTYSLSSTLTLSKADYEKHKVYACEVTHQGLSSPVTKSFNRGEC
notes: as for B1
B3: multivalent antibody 341VL34-CH1-341 (bispecific antibody)
heavy: EVQLVESGGGLVKPGGSLRLSCGGSGFTFNNAWMNWVRQAPGKGLEWVGRIKGKTDGGTADYAAPVKGRFTISRDYSKNTLYLQMNSLTTEDTAVYYCNTDLPYYYGSGRYSGMDVWGQGTTVTVSSASTKGPSVFPLAPCSRSTSESTAALGCLVKDYFPEPVTVSWNSGALTSGVHTFPAVLQSSGLYSLSSVVTVPSSNFGTQTYTCNVDHKPSNTKVDKTVGSQVQLQQSGPGLVKPSQTLSLTCAISGDSVSSNSATWNWIRQSPSRDLEWLGRTYYRSKWYRDYVGSVKSRIIINPDTSNNQFSLQLNSVTPEDTAIYYCTRAQWLGGDYPYYYSMDVWGQGTTVTVSSASTKGPSVFPLAPCSRSTSESTAALGCLVKDYFPEPVTVSWNSGALTSGVHTFPAVLQSSGLYSLSSVVTVPSSNFGTQTYTCNVDHKPSNTKVDKTVERKCCVECPPCPAPPVAGPSVFLFPPKPKDTLMISRTPEVTCVVVDVSHEDPEVQFNWYVDGVEVHNAKTKPREEQFNSTFRVVSVLTVVHQDWLNGKEYKCKVSNKGLPASIEKTISKTKGQPREPQVYTLPPSREEMTKNQVSLTCLVKGFYPSDIAVEWESNGQPENNYKTTPPMLDSDGSFFLYSKLTVDKSRWQQGNVFSCSVMHEALHNHYTQKSLSLSPGK
light: EIVLTQSPATLSLSPGERATLSCRASQSVSSYLAWYQQKPGQAPRLLIYDASNRATGIPARFSGSGSGTDFTLTISSLEPEDFAVYYCQQRSNTFGPGTKVDIK
notes: Anti-CD28 site N-terminal, anti-CD40 site C-terminal; Tested as culture supernatant; not shown: human immunoglobulin kappa light chain constant region
B4: multivalent antibody 341VL36-CH1-341 (bispecific antibody)
heavy: B3 heavy with T89K, A94G, N99T, D101Y, G109E, Y111W
light: B3 light
notes: Anti-CD28 site N-terminal, anti-CD40 site C-terminal; Entry probably still carries the signal peptide; Tested as culture supernatant; not shown: human immunoglobulin kappa light chain constant region
B5: multivalent antibody 341-CH1-341VL34 (bispecific antibody)
heavy: QVQLQQSGPGLVKPSQTLSLTCAISGDSVSSNSATWNWIRQSPSRDLEWLGRTYYRSKWYRDYVGSVKSRIIINPDTSNNQFSLQLNSVTPEDTAIYYCTRAQWLGGDYPYYYSMDVWGQGTTVTVSSASTKGPSVFPLAPCSRSTSESTAALGCLVKDYFPEPVTVSWNSGALTSGVHTFPAVLQSSGLYSLSSVVTVPSSNFGTQTYTCNVDHKPSNTKVDKTVGSEVQLVESGGGLVKPGGSLRLSCGGSGFTFNNAWMNWVRQAPGKGLEWVGRIKGKTDGGTADYAAPVKGRFTISRDYSKNTLYLQMNSLTTEDTAVYYCNTDLPYYYGSGRYSGMDVWGQGTTVTVSSASTKGPSVFPLAPCSRSTSESTAALGCLVKDYFPEPVTVSWNSGALTSGVHTFPAVLQSSGLYSLSSVVTVPSSNFGTQTYTCNVDHKPSNTKVDKTVERKCCVECPPCPAPPVAGPSVFLFPPKPKDTLMISRTPEVTCVVVDVSHEDPEVQFNWYVDGVEVHNAKTKPREEQFNSTFRVVSVLTVVHQDWLNGKEYKCKVSNKGLPASIEKTISKTKGQPREPQVYTLPPSREEMTKNQVSLTCLVKGFYPSDIAVEWESNGQPENNYKTTPPMLDSDGSFFLYSKLTVDKSRWQQGNVFSCSVMHEALHNHYTQKSLSLSPGK
light: B3 light
notes: Anti-CD40 site N-terminal, anti-CD28 site C-terminal; Tested as culture supernatant; not shown: human immunoglobulin kappa light chain constant region
B6: multivalent antibody 341-CH1-341VL36 (bispecific antibody)
heavy: B5 heavy with T317K, A322G, N327T, D329Y, G337E, Y339W
light: B3 light
notes: Anti-CD40 site N-terminal, anti-CD28 site C-terminal; Entry probably still carries the signal peptide; Tested as culture supernatant; not shown: human immunoglobulin kappa light chain constant region
B7: multivalent antibody 341VL36-CH1-H-CH2-CH3-341-CH1 (bispecific antibody)
heavy: EVQLVESGGGLVKPGGSLRLSCGGSGFTFNNAWMNWVRQAPGKGLEWVGRIKGKTDGGTADYAAPVKGRFTISRDYSKNTLYLQMNSLKTEDTGVYYCTTYLPYYYGSERWSGMDVWGQGTTVTVSSASTKGPSVFPLAPCSRSTSESTAALGCLVKDYFPEPVTVSWNSGALTSGVHTFPAVLQSSGLYSLSSVVTVPSSNFGTQTYTCNVDHKPSNTKVDKTVERKCCVECPPCPAPPVAGPSVFLFPPKPKDTLMISRTPEVTCVVVDVSHEDPEVQFNWYVDGVEVHNAKTKPREEQFNSTFRVVSVLTVVHQDWLNGKEYKCKVSNKGLPASIEKTISKTKGQPREPQVYTLPPSREEMTKNQVSLTCLVKGFYPSDIAVEWESNGQPENNYKTTPPMLDSDGSFFLYSKLTVDKSRWQQGNVFSCSVMHEALHNHYTQKSLSLSPGKGSQVQLQQSGPGLVKPSQTLSLTCAISGDSVSSNSATWNWIRQSPSRDLEWLGRTYYRSKWYRDYVGSVKSRIIINPDTSNNQFSLQLNSVTPEDTAIYYCTRAQWLGGDYPYYYSMDVWGQGTTVTVSSASTKGPSVFPLAPCSRSTSESTAALGCLVKDYFPEPVTVSWNSGALTSGVHTFPAVLQSSGLYSLSSVVTVPSSNFGTQTYTCNVDHKPSNTKVDKTV
light: B3 light
notes: Entry probably still carries the signal peptide; Tested as culture supernatant; not shown: human immunoglobulin kappa light chain constant region
B8: anti-CD28 antibody 341VL34 (antibody, V domains shown)
VH: EVQLVESGGGLVKPGGSLRLSCGGSGFTFNNAWMNWVRQAPGKGLEWVGRIKGKTDGGTADYAAPVKGRFTISRDYSKNTLYLQMNSLTTEDTAVYYCNTDLPYYYGSGRYSGMDVWGQGTTVTVSS
VL: B3 light
notes: Made in the N5KG2Ser vector; Tested as culture supernatant; not shown: human immunoglobulin kappa light chain constant region
B9: anti-CD28 antibody 341VL36 (antibody, V domains shown)
VH: B8 VH with T89K, A94G, N99T, D101Y, G109E, Y111W
VL: B3 light
notes: as for B8
B10: anti-CD40 antibody 341-1-19 (antibody, IgG2, V domains shown)
VH: QVQLQQSGPGLVKPSQTLSLTCAISGDSVSSNSATWNWIRQSPSRDLEWLGRTYYRSKWYRDYVGSVKSRIIINPDTSNNQFSLQLNSVTPEDTAIYYCTRAQWLGGDYPYYYSMDVWGQGTTVTVSS
VL: B3 light
notes: IgG2; Tested as culture supernatant; also called antibody produced by hybridoma KM341-1-19; not shown: human immunoglobulin kappa light chain constant region; kappa inferred from the anti-human κ detecti
B11: 341VL34 scFv (scFv)
scFv: EVQLVESGGGLVKPGGSLRLSCGGSGFTFNNAWMNWVRQAPGKGLEWVGRIKGKTDGGTADYAAPVKGRFTISRDYSKNTLYLQMNSLTTEDTAVYYCNTDLPYYYGSGRYSGMDVWGQGTTVTVSSGGGGSGGRASGGGGSEIVLTQSPATLSLSPGERATLSCRASQSVSSYLAWYQQKPGQAPRLLIYDASNRATGIPARFSGSGSGTDFTLTISSLEPEDFAVYYCQQRSNTFGPGTKVDIK
notes: phage culture supernatant
B12: 341VL36 scFv (scFv)
scFv: B11 scFv with T89K, A94G, N99T, D101Y, G109E, Y111W
notes: phage culture supernatant

What follows are binders tested against T1, human-CD28-Fc fusion protein (human, UniProt P10747 19-152) (assay: ELISA, human-CD28-Fc coated at 1 µg/mL, culture supernatant, anti-human κ HRP detection).
T1 construct: also called Fc fusion protein of the human-CD28 extracellular domain with IgG; hECD28-Fc
T1 sequence (P10747 19-152): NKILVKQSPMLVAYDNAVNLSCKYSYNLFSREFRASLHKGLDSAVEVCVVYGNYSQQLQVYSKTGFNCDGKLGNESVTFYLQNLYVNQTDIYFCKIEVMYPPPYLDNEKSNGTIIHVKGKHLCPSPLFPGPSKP
Description: (§1) The human-CD4O-Fc fusion protein and the human-CD28-Fc fusion protein were adjusted to give a concentration of 1 μg/mL using coating buffer (50 mM carbonate buffer, pH 9). To a well, 50 μL/well of the obtained human-CD4O-Fc fusion prostein or the obtained human-CD28-Fc fusion protein was added into the Maxisorp Plate (manufactured by Nalge Nunc International) respectively, and incubated at 4° C. overnight to be immobilized. Then, 200 μL/well of blocking reagent (SuperBlock (registered trademark) Blocking Buffer, manufactured by Pierce Protein Research) was added to the well, followed by incubation at room temperature for 30 minutes for blocking. Then, 50 μL/well of the culture supernatant comprising each antibody obtained in above Examples was added to the well followed by incubation at room temperature for 1 hour. After washing three times with Washing buffer (0.1% Tween20-TBS), Affinity Isolated Antibody HRP Conjugated Goat F(ab)₂ anti-Human κ (manufactured by EY Laboratories Inc) was diluted with assay diluent (0.1% Tween20-TBS containing Block Ace manufactured by Dainippon Sumitomo Pharma Co. Ltd. by 10%). Then, 50 μL of the obtained solution was added to each well followed by incubation at a room temperature for 1 hour. After washing three times with washing buffer, 50 μL of TMB (manufactured by Dako) coloring substrate solution was added to each well, followed by incubation in a dark room at room temperature. After developping color, 0.5 M vitriol (50 μL/well) was added to stop the reaction. The absorbance at the wavelength of 450 nm was measured with a microplate reader (SPECTRAMAX190, manufactured by Molecular Devices Inc).

| Binder | binding result |
| --- | --- |
| B1 | binds |
| B2 | binds |
| B3 | binds |
| B4 | binds |
| B5 | binds |
| B6 | binds |
| B7 | binds |
| B8 | binds |
| B9 | binds |
| B10 | no binding |

Each binder was assayed against T1, human-CD28-Fc fusion protein (assay: phage ELISA, human-CD28-Fc coated at 2 µg/mL, anti-E tag HRP detection).
Description: Each single colony obtained from the antibody library to which the panning had been applied was seeded in 200 μL of 2×YTAG culture medium and subjected to a shaking culture at 30° C. for 4 to 5 hours. Then, 200 μL of 1×10¹⁰ pfu/mL M13KO helper phage was added to the culture solution for the infection (the shaking culture at 30° C. for 1 hour). After changing the culture medium to 2×YTAK, the shaking culture was carried out at 30° C. overnight. The binding property to the antigen was examined by the following steps (ELISA) using this culture supernatant as a phage solution.
The human-CD28-Fc fusion protein was diluted with Coating buffer (50 mM carbonate buffer, pH 9) to give a concentration of 2 μg/mL. The obtained solution was put into the Maxisorp Plate (manufactured by Nalge Nunc International) at 50 μL/well and incubated at 4° C. overnight to be immobilized. Then, to the well, 200 μL/well of blocking reagent (SuperBlock (registered trademark) Blocking Buffer, manufactured by Pierce Protein Research) was added, the resulting object was incubated at a room temperature for 30 minutes to complete the blocking. To the well, 50 μL/well of each phage solution was added, and incubated at a room temperature for 1 hour. […] The absorbance at the wavelength of 450 nm was measured with a microplate reader (SPECTRAMAX190, manufactured by Molecular Devices Inc).

| Binder | binding result |
| --- | --- |
| B11 | binds |
| B12 | binds |

The binders below were run against T2, human-CD40-Fc fusion protein (human, UniProt P25942 21-193) (assay: ELISA, human-CD40-Fc coated at 1 µg/mL, culture supernatant, anti-human κ HRP detection).
T2 construct: also called human-CD4O-Fc fusion protein; not shown: Fc part; origin and limits not described
T2 sequence (P25942 21-193 limits assumed): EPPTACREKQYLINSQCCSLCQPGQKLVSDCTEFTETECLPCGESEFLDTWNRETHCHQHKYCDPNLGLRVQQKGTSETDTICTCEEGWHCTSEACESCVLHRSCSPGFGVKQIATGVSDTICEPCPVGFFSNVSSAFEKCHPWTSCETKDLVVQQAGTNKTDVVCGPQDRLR
Description: as §1, with “After washing three times with washing buffer, 50 μL of TMB (manufactured by Dako) coloring substrate solution was added to each well, followed by incubation in a dark room at room temperature. After developping color, 0.5 M vitriol (50 μL/well) was added to stop the reaction.” left out

| Binder | binding result |
| --- | --- |
| B8 | no binding |
| B9 | no binding |
